What was measured:
[1] = target: thrombin-catalyzed conversion of fibrinogen to fibrin (Homo sapiens, UniProt P00734); assay: Anticoagulating activity: clotting time of a fibrinogen solution; assay type: biochemical; conditions: polypeptide purified from Acremonium chrysogenum (Example 6(4))
Protocol: The activity of each of the polypeptides of the present invention to inhibit the thrombin-catalyzed conversion of fibrinogen to fibrin so as to inhibit blood coagulation, is determined by measuring clotting time using Coagulometer KC-10A (manufactured and sold by Heinrich Amelung A.G., Germany). Illustratively stated, to 0.05M Tris-HCl buffer (pH 7.5) containing 5 mM CaCl2 and 0.1M NaCl is added 3.0 μg of fibrinogen (Fraction I, manufactured and sold by Sigma Chemical Company, U.S.A.). To the resultant mixture is added 0 to 50 nM of each of the purified polypeptides of the present invention. Then, 10 nM thrombin is added to the mixture in such an amount that the total amount of the mixture becomes 0.4 ml, and then the coagulation time of the mixture is measured.

[2] = target: T1, thrombin-catalyzed activation of protein C (Homo sapiens, UniProt P00734); assay: Activated protein C formation against reaction time with purified polypeptide (Example 4-(6)); assay type: biochemical; conditions: polypeptide purified from Acremonium chrysogenum strains D71 and M31 (Example 6(4))
Protocol: To 0.02M Tris-HCl buffer (pH 8.5) containing 0.1M NaCl, 0.5 mM CaCl2 and 10 mg/ml BSA are added 50 μg/ml protein C, 5 nM thrombin and 5 nM of each of the purified polypeptides of the present invention, and reacted at 37° C. To each of the reaction mixtures are added 300 μg/ml antithrombin III (manufactured and sold by Sigma Chemical Company, U.S.A.) and 5 mM EDTA to terminate the reaction. Then, the amount of the activated protein C produced by the reaction is determined by the method described in Example 1-(3) in which a synthetic substrate is used.

[3] = target: T2, thrombin-catalyzed activation of GDPC (protein C having no Gla domain) (Homo sapiens, UniProt P00734); assay: Same assay with protein C having no Gla domain (GDPC) instead of protein C; assay type: biochemical; conditions: calcium ion concentrations of 0 to 5 mM
T2 construct: 3 μl of thrombin (manufactured and sold by Sigma Chemical Company, catalog No. T-6759, 20 ng/μl); purchased Sigma Chemical Company T-6759
Protocol: (§1) With respect to the polypeptide solutions (0.4 μg/ml) purified and quantitated in Example 1-(5)-(d), the activity of polypeptides to promote the thrombin-catalyzed activation of protein C is measured according to the method described in Example 1-(3). The CaCl2 concentration of 10×Assay buffer is adjusted so that the activities at calcium ion concentrations of 0 to 5 mM are determined. Also, with respect to protein C having no Gla domain (hereinafter referred to as "GDPC") which is prepared by chymotrypsin treatment according to the method of N. L. Esmon [J. Biol. Chem. Vol. 258, pp. 5548-5553 (1983)]and which is used instead of protein C, the activity measurement is carried out within the same range of calcium concentration.

[4] = target: T1, thrombin-catalyzed activation of protein C; assay: Activity to promote the activation of protein C (Example 9-(4)); assay type: biochemical; conditions: peptide solution 10 nM, thrombin 15 nM, protein C 3.2 μM, 37° C., one hour
Protocol: With respect to the polypeptide purified in Example 9-(3), the activity to promote the activation of protein C is measured according to the following method. That is, 10 μl of a peptide solution (10 nM), 10 μl of thrombin (15 nM), 10 μl of protein C (3.2 μM), 10 μl of 10×Assay buffer [0.5M Tris HCl (pH 7.5) containing 1% BSA, 1M NaCl and 20 mM CaCl2 ] and 60 μl of distilled water are mixed together. The mixture is reacted at 37° C. for one hour, and antithrombin III and hepalin are added at final concentrations of 100 nM and lu/ml, respectively, thereby stopping the reaction. To measure the concentration of activated protein C, the concentration of AMC ([…]) liberated from a 200 μM substrate of Boc-Leu-Ser-Thr-Arg-MCA in a buffer containing 0.05M Tris HCl (pH 8.0) and 0.1M CsCl is measured at an excitation wavelength of 380 nm and a measuring wavelength of 440 nm.

[5] = target: T1, thrombin-catalyzed activation of protein C; assay: Assay of the activity to promote the thrombin-catalyzed activation of protein C (Example 1-(3), fluorogenic substrate Boc-Leu-Ser-Thr-Arg-MCA); assay type: biochemical, bovine; set-up: 3 μl of thrombin (manufactured and sold by Sigma Chemical Company, catalog No. T-6759, 20 ng/μl); purchased Sigma Chemical Company T-6759; conditions: for calcium ion concentration at which the activity is highest: activation of protein C, calcium ion 0 to 5 mM; for amount of activated protein C with reaction time (in words): from D71 strain; for activity to promote the thrombin-catalyzed activation of protein C (in words): purified polypeptide from COS-1, calcium ion concentrations of 0 to 5 mM
Protocol: 5 μl of the supernatant of the culture of COS-1 cells is transformed by each of plasmids pSV2TMD7 and pSV2TMD8, 3 μl of thrombin (manufactured and sold by Sigma Chemical Company, catalog No. T-6759, 20 ng/μl), 5 μl of 10×Assay Buffer containing 1M NaCl, 30 mM CaCl2, 1% calf serum albumin and 0.5M tris-HCl buffer (pH 8.5) and 29.5 μl of distilled water are mixed together and allowed to stand at 37° C. for 5 minutes, followed by the addition of 7.5 μl protein C (derived from bovine, 0.2 μg/μl) to the mixture. The reaction is conducted at 37° C. for 30 minutes, and terminated by adding 6.25 μl of a stop solution (20 mM tris-HCl buffer, pH7.5, containing 100 mM NaCl, 0.3A280 anti-thrombin III and 100 μg/ml heparin).
The activity of activated protein C is measured by first adding 10 μl of Boc-Leu-Ser-Thr-Arg-MCA (manufactured and sold by Peptide Institute, The Foundation (Japan), 5 mg/ml), 5 μl of 5M CsCl and 495 μl of a substrate reaction buffer (50 mM tris-HCl buffer containing 100 mM NaCl (pH 8.5)), next allowing the reaction to proceed at 37° C. for 20 minutes, then terminating the reaction by adding 55 μl of acetic acid, and finally measuring the concentration of liberated AMC ([…]) by means of a spectrofluorometer (model RF-540, manufactured and sold by Shimadzu Corporation, Japan) at an excitation wavelength of 380 nm and an emission wavelength of 440 nm. The obtained fluorescence intensity is compared with the fluorescence intensity of a solution having a known AMC concentration to determine the amount of the liberated AMC. The value obtained by deducting from this amount the amount of AMC in the case where an aqueous solution containing no polypeptide of the present invention is added, represents the activity of the polypeptide to promote the thrombin-catalyzed activation of protein C. The activity to produce 1 nM of activated protein C per ml of reaction mixture and per minute is defined as 1 u (unit).
as §1

[6] = test system: thrombin-catalyzed platelet aggregation; assay: Platelet aggregation-inhibiting activity (Platelet Rich Plasma, HEMA TRACER IV); assay type: cell-based; conditions: polypeptide purified from Acremonium chrysogenum (Example 6(4))
Protocol: The activity of each of the polypeptides of the present invention to inhibit the thrombin-catalyzed platelet aggregation is evaluated using platelet aggregation measuring apparatus HEMA TRACER IV (manufactured and sold by NIKO Bioscience, Inc., Japan). Measurement is carried out according to the manual attached thereto. When 40 μl of a 20 NIH unit/ml thrombin solution (manufactured and sold by SIGMA Chemical Co., U.S.A., T 6759) is added to 180 μl of a Platelet Rich Plasma (PRP) platelet solution (3×10^5 cells/μl) and incubated, the aggregation of platelets occurs. […] The aggregation of platelets is determined on the basis of the transparency, assuming the transparency of Platelet Poor Plasma (PPP) solution as 100%. The ratio of platelet aggregation is plotted against the incubation time (0 min: the time when thrombin or a mixture of thrombin and one of the polypeptides is added to the PRP solution). It is confirmed that the platelet aggregation is inhibited when one of the polypeptides of the present invention is added.

Row | Substance | clotting time of fibrinogen solution against amount of polypeptide (in words) [1] | amount of activated protein C with reaction time (in words) [2] | activity in the activation of GDPC (in words) [3] | production of activated protein C [4] [pmol] | Specific activity ([5]; COS-1 culture supernatant, activity per amount of polypeptide by ELISA) [u/mg] | calcium ion concentration at which the activity is highest [5] [mM] | specific activity (in words) ([5]; deletion mutants expressed in COS-1 cells) | amount of activated protein C with reaction time (in words) ([5]; purified by DIP-thrombin column (Example 8(2))) | amount of activated protein C with reaction time (in words) ([5]; purified by anti-TM monoclonal antibody column 1 (Example 8(4))) | amount of activated protein C with reaction time (in words) ([5]; purified by anti-TM monoclonal antibody column 2 (Example 8(5))) | activity to promote the thrombin-catalyzed activation of protein C (in words) [5] | Activity ([5]; supernatant of culture of COS-1 cells transformed with the plasmid, 1 u = 1 nM activated protein C per ml per minute) [u/ml] | thrombin-catalyzed platelet aggregation (in words) [6]
1 | E456Asp: polypeptide of the 367th to 480th amino acid residues of human thrombomodulin, from cells transfected with pSV2TMD7 or Acremonium strain D71 | the longer the clotting time | increased with the lapse of reaction time | low activity | 18.3 | 5809 | 0.4 to 0.5 | same level of specific activity as that of the 115-amino acid polypeptide | increased with the lapse of the reaction time | increased with the lapse of reaction time | increased with lapse of reaction time | high activity | 1210 | inhibited
2 | D123Asp: polypeptide of amino acid residues up to the 516th position of human thrombomodulin (FIG. 55), expressed from pSV2TMD1 |  |  | low activity | 18.6 |  | 0.4 to 0.5 |  |  |  |  | high activity |  | 

From patent US5574007A, “Polypeptide capable of interacting with thrombin” (Asahi Kasei Kogyo Kabushiki Kaisha, priority 1990, dated 1996)
